Consider ten molecules from article PMC7498317, “GapR binds DNA through dynamic opening of its tetrameric interface” (Nucleic Acids Research, 2020).

The target in data set [1] is T1, GapR (Caulobacter crescentus, UniProt B8H4R9 1-89).
T1 sequence: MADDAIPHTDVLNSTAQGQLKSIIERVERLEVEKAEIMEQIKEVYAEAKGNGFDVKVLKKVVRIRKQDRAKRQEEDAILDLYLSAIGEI
The data set is described as follows: ITC; netropsin-bound DNA; ITC: 50 mM sodium phosphate pH 7.0, 200 mM NaCl, 4 C; 25 uM GapR tetramer in cell, 0.25 mM DNA injected; NMR: 0.1 mM tetramer, 0.02-0.1 mM DNA. The following applies: protein: recombinant; tags: C-terminal His6 (pET-21a); chain copies: 4; blunt.

Data set [2] deals with T1, GapR. Briefly: ITC; ITC: 50 mM sodium phosphate pH 7.0, 200 mM NaCl, 4 C; 25 uM GapR tetramer in cell, 0.25 mM DNA injected; NMR: 0.1 mM tetramer, 0.02-0.1 mM DNA. The following applies: protein: recombinant, tags: C-terminal His6 (pET-21a), chain copies: 4, blunt.
In the next data set the target is T2, GapR G87A (Caulobacter crescentus, UniProt B8H4R9 1-89, G87A).
T2 sequence: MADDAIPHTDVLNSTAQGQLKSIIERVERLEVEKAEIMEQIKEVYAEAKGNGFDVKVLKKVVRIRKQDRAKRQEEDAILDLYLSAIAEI
Briefly: NMR (1H-15N HSQC titration); minor peaks disappear on DNA addition; ITC: 50 mM sodium phosphate pH 7.0, 200 mM NaCl, 4 C; 25 uM GapR tetramer in cell, 0.25 mM DNA injected; NMR: 0.1 mM tetramer, 0.02-0.1 mM DNA. The conditions noted are these: protein: recombinant; tags: C-terminal His6 (pET-21a); chain copies: 4; blunt.

Data set [3] deals with the molecule itself. Briefly: SEC; Superdex 75, 50 mM sodium phosphate pH 7.0, 150 mM NaCl; apparent molecular weight from the elution volume; self-association.
Data set [4] concerns the molecule itself. The data set is described as follows: cross-linking; 0.1 mM protein, EGS 0.5 and 1 mM, 50 mM sodium phosphate, 150 mM NaCl, pH 7.2, room temperature, 10 min; self-association.
Data set [5] concerns the molecule itself. The data set is described as follows: SEC-MALS; Superdex-75 HR 10/30, 50 mM sodium phosphate pH 7.0, 150 mM NaCl, 25°C; free GapR 0.5, 1.0 and 2.0 mg/mL, GapR^ΔC17 2.0 mg/ml; self-association. In general terms: Size exclusion chromatography separates by hydrodynamic size, large species first.

B1: 5ApT (dsDNA)
DNA 1: CCGATATATATATCGC
DNA 2: GCGATATATATATCGG
On to B1, for which the Kd (as a rule, the equilibrium constant for the complex coming apart) in the data set with GapR [1] came to 16.6 ± 4.5 nM; with GapR [2], 12.3 ± 8.9 nM.

B2: 10A (dsDNA)
DNA 1: CCGAAAAAAAAAACGC
DNA 2: GCGTTTTTTTTTTCGG
With B2, in the data set with GapR [2], the Kd amounted to 11.6 ± 2.5 nM. Besides, in the data set with GapR G87A, the binding result is reported as “binds”.

B3: 11AT (dsDNA)
DNA 1: TTAAAATTAAA
DNA 2: TTTAATTTTAA
B3: in the data set with GapR [2], the Kd turned out to be 12.3 ± 4.5 nM.

B4: 6CpG (dsDNA)
DNA 1: CGCGCGCGCGCG
DNA 2: CGCGCGCGCGCG
Take B4: in the data set with GapR [2] (self-complementary), the Kd came out at 118 ± 17 nM.

B5: GapR^ΔN10 (residues 11-89) (domain or fragment, C. crescentus, UniProt B8H4R9 11-89, looked up)
chain: VLNSTAQGQLKSIIERVERLEVEKAEIMEQIKEVYAEAKGNGFDVKVLKKVVRIRKQDRAKRQEEDAILDLYLSAIGEI
notes: GapR of Caulobacter crescentus, gene CCNA_03428, residues 11-89; pET-28a(+) with a thrombin-cleavable N-terminal His6-tag; the tag was removed by thrombin; also called N-terminal truncation mutant; source: E. coli Rosetta (DE3), purified (Ni-NTA, thrombin cleavage, size-exclusion chromatography); not shown: His6, N-terminal, cleaved
For the molecule B5, in data set [3], the binding result was “binds”.

B6: GapR (growth-associated A/T-binding protein involved in regulation), full length, residues 1-89 (natural protein, C. crescentus, UniProt B8H4R9 1-89, looked up)
chain: MADDAIPHTDVLNSTAQGQLKSIIERVERLEVEKAEIMEQIKEVYAEAKGNGFDVKVLKKVVRIRKQDRAKRQEEDAILDLYLSAIGEI
notes: GapR of Caulobacter crescentus, gene CCNA_03428, residues 1-89 (full length); theoretical monomer mass 11.2 kDa as printed; A selenomethionyl derivative was used for MAD phasing of the GapR/10A complex structure; 15N- or 13C-labelled for NMR; also called free GapR; full-length GapR; source: E. coli Rosetta (DE3), purified (Ni-NTA, size-exclusion chromatography on Superdex 75)
In the case of B6, the stoichiometry N (in general, a count of units in the complex or per binding partner) in data set [4] was found to be 4.

B7: GapR^ΔC17 (residues 1-72) (domain or fragment, C. crescentus, UniProt B8H4R9 1-72, looked up)
chain: MADDAIPHTDVLNSTAQGQLKSIIERVERLEVEKAEIMEQIKEVYAEAKGNGFDVKVLKKVVRIRKQDRAKR
notes: GapR of Caulobacter crescentus, gene CCNA_03428, residues 1-72; theoretical dimer mass 18.6 kDa as printed; also called C-terminal truncation mutant; source: E. coli Rosetta (DE3), purified (Ni-NTA, size-exclusion chromatography)
On to B7, for which the “stoichiometry N” value in data set [5] was determined as 2.

B8: GapR^ΔC8 (residues 1-81) (domain or fragment, C. crescentus, UniProt B8H4R9 1-81, looked up)
chain: MADDAIPHTDVLNSTAQGQLKSIIERVERLEVEKAEIMEQIKEVYAEAKGNGFDVKVLKKVVRIRKQDRAKRQEEDAILDL
notes: GapR of Caulobacter crescentus, gene CCNA_03428, residues 1-81; also called C-terminal truncation mutant; source: E. coli Rosetta (DE3), purified (Ni-NTA, size-exclusion chromatography)
As to B8, the “stoichiometry N” value in data set [3] was determined as 2.

B9: seq1 (dsDNA)
DNA 1: GCGAAATTGATCG
DNA 2: CGATCAATTTCGC
With B9, in the data set with GapR [2], the Kd came to 72 ± 24 nM.

B10: seq2 (dsDNA)
DNA 1: CGTGTTTTCGG
DNA 2: CCGAAAACACG
For the molecule B10, the Kd with GapR [2] was determined as 72 ± 19 nM.
